Laboratory results taken from patent US6962792B1, “Methods and means for inhibition of Cdk4 activity” (Cyclacel Limited, priority 1996, dated 2005).
Entries after “also recorded” stand apart in the source; their conditions may differ. Where two headings read alike, the source gives them in different places. Blank lines part the entries; values can stand above or below the molecule they belong to. Where a SMILES comes first, the peptide text is derived from it. Where no end group is shown, it is not given here.

Key:
[1] = target: T1, cyclin D1-Cdk4 (Homo sapiens, UniProt P11802+P24385); test: Cyclin D1-Cdk4 GST-Rb phosphorylation assay (Sf9 insect cell lysate); format: biochemical
T1 construct: made in house; host or cells: Sf9 insect cells, baculovirus co-infection; unpurified lysate
T1 sequence (P11802 whole entry): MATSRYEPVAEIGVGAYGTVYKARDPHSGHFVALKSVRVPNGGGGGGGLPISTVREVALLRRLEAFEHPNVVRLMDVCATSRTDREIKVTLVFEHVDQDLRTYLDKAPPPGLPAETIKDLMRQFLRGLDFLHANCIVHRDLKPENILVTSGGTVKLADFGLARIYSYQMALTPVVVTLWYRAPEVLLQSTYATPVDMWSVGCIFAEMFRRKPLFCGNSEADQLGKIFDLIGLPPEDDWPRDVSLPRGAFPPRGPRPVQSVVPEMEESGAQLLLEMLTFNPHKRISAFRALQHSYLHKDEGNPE
T1 sequence (P24385 whole entry): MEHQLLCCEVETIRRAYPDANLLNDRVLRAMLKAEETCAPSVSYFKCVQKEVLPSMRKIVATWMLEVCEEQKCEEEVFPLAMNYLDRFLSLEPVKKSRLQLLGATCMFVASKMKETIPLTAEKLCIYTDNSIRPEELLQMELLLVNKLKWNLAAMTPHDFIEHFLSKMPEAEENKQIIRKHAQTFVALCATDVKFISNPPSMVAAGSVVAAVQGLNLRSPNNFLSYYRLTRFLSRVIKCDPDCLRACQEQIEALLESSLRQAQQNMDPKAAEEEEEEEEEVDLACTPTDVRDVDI
Protocol: (§1) “x” indicates no addition of peptide.
(§2) Cyclins and CDKs—Cdk4 and cyclin D1, Cdk2 and cyclin E and Cdc2 and cyclin B were co-expressed in Sf9 insect cells infected with the appropriate baculovirus constructs. The cells were harvested two days after infection by low speed centrifugation and the pellet was lysed in an equal volume of 10 mM Hepes, pH 7.4 containing: 10 mM NaCl, 1 mM EDTA, and 0.1 mM phenylmethane sulphonyl fluoride, 2 mM DTT and centrifuged at 14000×g for 15 min. The supernatant was removed, aliquoted and immediately frozen in liquid nitrogen. Thawed lysate was used only once and was never refrozen. Labelled Cdk4 and cyclin D1 were produced by translation in the presence of [^35S] methionine using a rabbit reticulocyte lysate in vitro translation kit (Promega).
(§3) Phosphorylation of GST-Rb—Cdk4 activity was measured using the cyclin D1-Cdk4 containing insect cell lysate described above. Extract (1 μl) was added to a final reaction volume of 10 μl, containing: 50 mM Hepes, pH 7.4, 10 mM MgCl2, 2.5 mM EGTA, 1 mM DTT, 10 mM β-glycerophosphate, 1 mM NaF, 10 mM PKI, 50 μM ATP containing [^32P] ATP (1000 cpm/pMol) and 0.5 μg GST-Rb. […] The samples were analysed by SDS-PAGE on 12% gels followed by auto-radiography and quantification using a Bio-Imager.

[2] = target: T2, cyclin D1-Cdk4 (Homo sapiens, UniProt P11802); test: as above; format: biochemical; conditions: GST-Rb substrate; read-out: I0.5 for inhibition of Cdk4 activity
T2 construct: made in house; host or cells: Sf9 insect cells, baculovirus co-infection; unpurified lysate
T2 sequence (P11802 whole entry): as the sequence (P11802 whole entry) above
T2 sequence (P24385 whole entry, further chain): as the sequence (P24385 whole entry) above
Protocol: as §1, §2, §3

[3] = target: T3, cyclin B-Cdc2 (Homo sapiens, UniProt P06493); test: Cyclin B-Cdc2 histone H1 kinase assay; format: biochemical; conditions: concentrations up to 20 μM
T3 construct: made in house; host or cells: Sf9 insect cells, baculovirus co-infection; unpurified lysate
T3 sequence (P06493 whole entry): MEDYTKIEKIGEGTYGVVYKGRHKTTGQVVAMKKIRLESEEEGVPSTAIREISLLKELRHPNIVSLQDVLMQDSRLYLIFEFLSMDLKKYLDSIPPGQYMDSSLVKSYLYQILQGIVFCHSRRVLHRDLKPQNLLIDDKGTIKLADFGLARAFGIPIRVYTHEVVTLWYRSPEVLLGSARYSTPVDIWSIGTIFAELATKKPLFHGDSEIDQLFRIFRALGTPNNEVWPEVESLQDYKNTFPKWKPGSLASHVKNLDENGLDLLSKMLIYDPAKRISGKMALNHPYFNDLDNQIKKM
T3 sequence (P14635 whole entry partner): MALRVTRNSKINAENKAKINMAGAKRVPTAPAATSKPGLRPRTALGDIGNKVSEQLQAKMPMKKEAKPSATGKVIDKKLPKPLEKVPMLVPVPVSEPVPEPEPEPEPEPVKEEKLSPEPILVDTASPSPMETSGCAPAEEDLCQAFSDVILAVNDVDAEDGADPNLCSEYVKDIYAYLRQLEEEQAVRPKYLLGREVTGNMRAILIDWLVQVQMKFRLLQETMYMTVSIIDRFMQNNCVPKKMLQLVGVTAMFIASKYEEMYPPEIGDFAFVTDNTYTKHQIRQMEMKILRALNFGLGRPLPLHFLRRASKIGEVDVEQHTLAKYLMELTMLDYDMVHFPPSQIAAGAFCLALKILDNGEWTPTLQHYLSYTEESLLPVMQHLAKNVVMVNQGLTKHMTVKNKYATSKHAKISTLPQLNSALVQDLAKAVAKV
Protocol: The conditions were identical to those described in the Experimental Procedures for cyclin D1-Cdk4 except that histone H1 (0.5 μg/assay) was used as the substrate for cyclin B-Cdc2.

[4] = target: T1, cyclin D1-Cdk4; test: Peptide phosphorylation by cyclin D1-Cdk4; format: biochemical; conditions: conditions where 2.4 nMol 32P incorporated per nMol GST-Rb
Protocol: The biotinylated peptides (1 μg) were incubated for 30 min at 30° C. in a final volume of 20 μl containing: 50 mM Hepes, pH 7.4, 10 mM MgCl2, 2.5 mM EGTA, 1 mM DTT, 10 mM β-glycerophosphate, 1 mM NaF, 10 mM PKI, 50 μM ATP containing [^32P]ATP (6000 cpm/pMol) and either 1 μl of cyclin D1-Cdk4 insect cell lysate, 1 μl of uninfected insect cell lysate or 0.02 mU of protein kinase C plus 0.5 mM CaCl2, 100 mg/ml phosphatidyl serine and 20 mg/ml diacylglycerol. The reactions were stopped by heating at 60° C. for 5 min and streptavidin agarose beads were added (10 μl packed cell volume washed with 3×PBS) and incubated with shaking at 4° C. for 30 min. The beads were washed extensively with PBS containing 3% (v/v) Tween-20 and the incorporation of radioactivity into the peptides was determined by Cerenkov counting.

[5] = test system: HaCaT cells; test: Cell cycle measurements by BrdU/FACS in HaCaT cells; format: cell-based, human; conditions: for G1-, S-phase distribution / G1 arrest: proliferating HaCaT cells, 24 hours, Peptide-I and Peptide-III 25 μM, Peptide-II 50 μM
Protocol: The peptides were added to proliferating HaCaT cells, grown in DMEM plus 10% FCS. The cells were incubated for 24 hours pulse labelled during with 15 μM BrdU, fixed and then analysed by FACS.
Carrier linked peptides were designed for delivery into proliferating HaCaT cells (see FIG. 9). Cells were seeded on 30mm culture plates and grown to 50% confluency in Dulbecco's modified Eagle's medium (DMEM) supplemented with 10% (v/v) foetal calf serum (FCS). Peptides were added to the medium and the cells were incubated for 24 hours. During the last 30 minutes of the incubation the cells were pulse labelled in the presence of 15 μM BrdU. The cells were trypsinised, fixed in absolute alcohol and prepared for FACS analysis using a single laser flow cytometer (Becton-Dickinson, FACScan) as previously described (Renzing et al, 1996).

[6] = test system: Soas2 cells; test: Cell cycle arrest in Rb negative cells; format: cell-based
[7] = test system: pRb phosphorylation in HaCaT cells; test: pRb phosphorylation in HaCaT cells (Western blot); format: cell-based, human; conditions: serum-starved HaCaT cells released with 10% FCS, 24 hour time course; Peptide-I 25 μM, Peptide-II 50 μM
Excerpt: Samples were taken at the times shown and analysed by SDS-PAGE/Western blot stained for pRb. pRb represents hypophosphorylated Rb protein and pRb* refers to hyperphosphorylated Rb protein. It should be pointed out that equal amounts of total protein were loaded per lane and that the antibody appears to preferentially recognise phosphorylated forms of the Rb protein. Peptide I corresponds with SEQ ID NO:24; peptide II corresponds with SEQ ID NO:25; and peptide III corresponds with SEQ ID NO:26.
HaCaT cells were seeded on 30 mm culture plates at 25% confluency in DMEM with 10% FCS. The FCS was withdrawn after 24 hours and the cells were starved for 72 hours. At the end of this period the medium was supplemented with 10% FCS and carrier linked peptides. Samples were taken over a 24 hour time course and the cells were lysed in RIPA buffer (50 mM Tris-HCl, pH 8.0, containing 150 mM NaCl, 1.0% (v/v) NP-40, 0.5% (w/v) DOC, 0.1% (w/v) SDS, 1 mM PMSF, 0.1 mg/ml aprotinin and 0.5 mg/ml leupeptin) for 30 minutes at 4° C. The phosphorylation statues of pRb was determined by Western blot analysis, as previously described (Fahraeus et al, 1996) except that the blot was probed with a pRb polyclonal antibody (C-15, Santa Cruz).

[8] = target: T1, cyclin D1-Cdk4; test: Relief of p21WAF1 inhibition in cyclin D1-Cdk4 GST-Rb phosphorylation assay; format: biochemical; conditions: peptide 1, 5, 17 & 34 μM, fixed concentration of p21WAF1
[9] = target: cyclin D1-Cdk4 complex co-expressed in Sf9 insect cells (lysate) (UniProt P11802); test: cell-based or functional assay
Chain of cyclin D1-Cdk4 complex co-expressed in Sf9 insect cells (lysate) (UniProt P11802) (P11802 whole entry, chain 1 of 2): as the sequence (P11802 whole entry) above
Chain of cyclin D1-Cdk4 complex co-expressed in Sf9 insect cells (lysate) (UniProt P11802) (P24385 whole entry, chain 2 of 2, further chain): as the sequence (P24385 whole entry) above

[10] = target: T4, cyclin D1 labelled with [35S]methionine, translated in rabbit reticulocyte lysate (human, UniProt P24385 1-295, [35S]methionine label); test: peptide precipitation of 35S-labelled protein from reticulocyte lysate, SDS-PAGE and autoradiography
T4 construct: also called 35S-labelled cyclin D1
T4 sequence (P24385 whole entry): as above
Protocol: (§4) After extensive washing bound proteins were analysed using SDS-PAGE followed by autoradiography. The bands were quantified using a Bio-Imager and Whole Band Analysis Software (Millipore).
(§5) Peptide (1.5 μg) was diluted in 100 μl of PBS and incubated with 10 μl of packed streptavidin-agarose beads (Sigma) for 1 h at room temperature. Unbound peptide was removed by extensive washing with PBS and the beads, plus bound peptide, were incubated for 1 h at 4° C. with reticulocyte lysate containing either Cdk4 or cyclin D1 labelled with [^35S] methionine. […] The bound protein was analysed by SDS-PAGE followed by auto-radiography and quantification of the ^35S-labelled protein using a Bio-Imager and Whole Band Analysis Software (Millipore).

[11] = target: cyclin D1-Cdk4 complex co-expressed in Sf9 insect cells (lysate) (UniProt P11802 1-303; P24385 1-295); test: cell-based or functional assay
Chain of cyclin D1-Cdk4 complex co-expressed in Sf9 insect cells (lysate) (UniProt P11802 1-303; P24385 1-295) (P11802 whole entry, chain 1 of 2): as the sequence (P11802 whole entry) above
Chain of cyclin D1-Cdk4 complex co-expressed in Sf9 insect cells (lysate) (UniProt P11802 1-303; P24385 1-295) (P24385 whole entry, chain 2 of 2): as the sequence (P24385 whole entry) above

[12] = target: T5, Cdk4 labelled with [35S]methionine, translated in rabbit reticulocyte lysate (human, UniProt P11802 1-303, [35S]methionine label); test: peptide precipitation of 35S-labelled protein from reticulocyte lysate, SDS-PAGE and autoradiography
T5 construct: also called 35S-labelled Cdk4
T5 sequence (P11802 whole entry): as the sequence (P11802 whole entry) above
Protocol: as §4, §5

Molecule: 8: synthetic peptide of the p21WAF1 library, SEQ ID NO:8 (AEEDHVDLSLSCTLVPRSGE) [compound 8]
cyclin D1-Cdk4 inhibitory activity [1]: only weak inhibition
inhibition of cyclin D1-Cdk4 activity ([1]; peptide at 17 μM): inhibited cyclin D1-Cdk4 activity

Molecule: CC[C@H](C)[C@H](NC(=O)[C@H](CC(C)C)NC(=O)[C@H](CCCNC(=N)N)NC(=O)[C@H](CCCNC(=N)N)NC(=O)[C@@H](N)CCCCN)C(=O)N[C@@H](Cc1ccccc1)C(=O)N[C@@H](CO)C(=O)N[C@@H](CCCCN)C(=O)O (H-KRRLIFSK-OH; C-terminus assumed)
cyclin D1-Cdk4 inhibitory activity [1]: completely inhibit cyclin D1-Cdk4 activity
fold higher I0.5 than full length peptide ([1]; versus full length peptide 10): approximately 1000 fold
IC50 [2]: ~100 µM

Molecule: Peptide-I: peptide 10 with M to A at position 7 synthesised onto Antennapedia carrier peptide, SEQ ID NO:24 (KRRQTSATDFYHSKRRLIFSRQIKIWFQNRRMKWKK)
G1-, S-phase distribution / G1 arrest [5]: number of cells entering S-phase in the presence of Peptide-I was dramatically reduced and the G1 population showed a concomitant increase
cell cycle arrest / G1 population in pRb negative cells [6]: increase in the population of cells in G1 phase
phosphorylation status of pRb [7]: pRb remained hypophosphorylated

Molecule: Peptide-II: truncated peptide 10 coupled to carrier peptide, SEQ ID NO:25 (KRRLIFSKRQIKIWFQNRRMKWKK)
fold lower I0.5 in vitro than free peptide ([1]; carrier linked versus free peptide, data not shown): approximately 50 fold
G1-, S-phase distribution / G1 arrest [5]: effectively promoted a G1-phase arrest
fold less active as growth suppressor than Peptide-I ([5]; versus Peptide-I): 2 fold
phosphorylation status of pRb [7]: totally prevented the phosphorylation of pRb

Molecule: Peptide-III: carrier linked control peptide 10 lacking the last 4 amino acids (LIFS), SEQ ID NO:26 (RQTSMTDFYHSKRRRQIKIWFQNRRMKWKK)
G1-, S-phase distribution / G1 arrest [5]: no detectable effect on the ability of HaCaT cells to enter S-phase

Molecule: R-A mutant: peptide 10 with R-A at residue 15, equivalent to residue 155 of the full length protein (KRRQTSMTDFYHSKARLIFSSGSG)
block of inhibitory activity of full length p21WAF1 [8]: able to block the inhibitory activity of full length p21^WAF1

Molecule: KRRQTSMTDFYHSKRRLIFSSGSG (not fully specified; Biotin-SGSG spacer at the C-terminus; free N-terminus) [peptide 10 (residues 141-160 of p21^WAF1)]
I0.5 for inhibition of Cdk4 activity (GST-Rb phosphorylation) [11]: 0.1 µM

Molecule: KRRLIFSKRQIKIWFQNRRMKWKK [Peptide-II (truncated peptide 10 linked to carrier peptide)]
fold decrease in fold I0.5 in vitro against the free truncated peptide 10 [11]: ~50 fold

The next lines start with results.

inhibition at 17 µM ([1]; peptide at 17 μM, read-out: inhibition of kinase activity): ~80%
Molecule: CC(C)C[C@H](NC(=O)[C@H](CCCNC(=N)N)NC(=O)[C@H](CCCNC(=N)N)NC(=O)[C@H](CS)NC(=O)[C@H](C)NC(=O)[C@@H](N)CCCCN)C(=O)N[C@@H](Cc1ccccc1)C(=O)NCC(=O)N1CCC[C@H]1C(=O)N[C@H](C(=O)N[C@@H](CC(=O)O)C(=O)N[C@@H](CO)C(=O)N[C@@H](CCC(=O)O)C(=O)N[C@@H](CCC(N)=O)C(=O)N[C@@H](CC(C)C)C(=O)N[C@@H](CO)C(=O)N[C@@H](CCCNC(=N)N)C(=O)N[C@@H](CC(=O)O)C(=O)N[C@@H](CS)C(=O)N[C@@H](CC(=O)O)C(=O)O)C(C)C [peptide 2] (H-KACRRLFGPVDSEQLSRDCD-OH; C-terminus assumed)
effect on Cdc2-cyclin B histone H1 kinase activity [3]: neither peptide 2 nor peptide 10 had a significant effect
substrate for cyclin D1-Cdk4 [4]: neither peptide 2 nor peptide 10 were substrates for cyclin D1-Cdk4

I0.5 for inhibition of cyclin D1-Cdk4 activity [9]: 16.3 µM
Molecule: p16INK4 derived peptide (Fahraeus et al., 1996)

cyclin D1-Cdk4 inhibitory activity ([1]; concentrations of up to 35 μM): no inhibitory activity
Molecule: peptide 4: residues 46-65 of p21WAF1, SEQ ID NO:4, Biotin-SGSG spacer (RERWNFDFVTETPLEGDFAW; not fully specified (N-terminus, C-terminus))
cyclin D1-Cdk4 inhibitory activity [1]: no detectable activity; also recorded: no Cdk4 inhibitory activity

cyclin D1-Cdk4 inhibitory activity [1]: potent inhibitor of Cdk4 activity
inhibition of cyclin D1-Cdk4 activity ([1]; peptide at 17 μM): completely inhibited enzyme activity
Molecule: peptide 11: extreme C-terminal peptide of p21WAF1, SEQ ID NO:11 (TSMTDFYHSKRRLIFSKRKP)

binding result [10]: no binding
B1: peptide 4 (residues 46-65 of p21^WAF1) (peptide)
peptide: H-RERWNFDFVTETPLEGDFAWSGSG
modifications: not fully specified (C-terminus); also: biotin on C-terminal SGSG spacer, order not given here
notes: Synthetic biotinylated peptide

I0.5 for inhibition of Cdk4 activity (GST-Rb phosphorylation) [11]: 0.1 µM
B2: peptide 11 (extreme C-terminal peptide of p21^WAF1) (peptide)
peptide: H-TSMTDFYHSKRRLIFSKRKPSGSG
modifications: not fully specified (C-terminus); also: biotin on C-terminal SGSG spacer, order not given here

fold I0.5 against the full length peptide 10 [11]: ~1000 fold
Molecule: KRRLIFSK [untagged eight amino acid peptide KRRLIFSK]

binding result [12]: no binding
I0.5 for inhibition of Cdk4 activity (GST-Rb phosphorylation) [11]: 2 µM
B3: peptide 2 (residues 16-35 of p21^WAF1) (peptide)
peptide: H-KACRRLFGPVDSEQLSRDCDSGSG
modifications: not fully specified (C-terminus); cysteine pairing not given here; also: biotin on C-terminal SGSG spacer, order not given here
notes: Synthetic biotinylated peptide, captured on streptavidin-agarose in the precipitation assay; The order of biotin and SGSG at the C-terminus is not spelled out

loss of inhibitory activity against cyclin D1-Cdk4 relative to peptide 10 [11]: > 60%
B4: peptide 10 mutant with R-A at residue 15 of peptide 10 (residue 155 of the full length protein) (peptide)
peptide: H-KRRQTSMTDFYHSKARLIFSSGSG
modifications: not fully specified (C-terminus); also: biotin on C-terminal SGSG spacer, order not given here
